5 sequences from the supplement of paper PMC5998384 can be followed below.

For data set [1], the system named is HeLa Kyoto. In words: solubility in G1/S (NP-40 vs SDS abundance) (log2 ratio); higher = more soluble. The settings on record: cell cycle stage: G1/S.
Data set [2] relates to HeLa Kyoto. In words: melting temperature (median over replicates), in situ; higher = more thermally stable.
For data set [3], the system named is HeLa Kyoto. In words: solubility change mitosis vs G1/S (difference of NP-40 vs SDS log2 ratios) (log2 ratio difference); higher = more soluble in mitosis.
Data set [4] concerns HeLa Kyoto. Nature of the data set: thermal stability score vs G1/S (z-score of summed log2 fold changes over temperatures); higher = more thermally stable than in G1/S.
Where [5] appears, read: cell cycle stage: early G1 (4.5 h after nocodazole release).
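Wherever melting temperature (median over replicates), in situ is given: HeLa Kyoto cells synchronized by double thymidine or nocodazole block, proteins quantified by TMT10plex mass spectrometry, three independent biological replicates.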
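Wherever solubility change mitosis vs G1/S (difference of NP-40 vs SDS log2 ratios) is given: synchronized HeLa Kyoto cells (double thymidine block for G1/S, nocodazole release for mitosis), protein amounts in NP-40 versus SDS lysates quantified by mass spectrometry, three biological replicates.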
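Wherever solubility in G1/S (NP-40 vs SDS abundance) is given: HeLa Kyoto cells arrested at G1/S by double thymidine block, proteins quantified by TMT10plex mass spectrometry in mild NP-40 versus SDS extracts, three biological replicates.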
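Wherever thermal stability score vs G1/S (z-score of summed log2 fold changes over temperatures) is given: synchronized HeLa Kyoto cells, proteins quantified by TMT10plex mass spectrometry, three biological replicates, mitosis taken 0.5 h after nocodazole release, G1/S directly after double thymidine block.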

Consider “MVKLFIGNLPREATEQEIRSLFEQYGKVLECDIIKNYGFVHIEDKTAAEDAIRNLHHYKLHGVNINVEASKNKSKTSTKLHVGNISPTCTNKELRAKFEEYGPVIECDIVKDYAFVHMERAEDAVEAIRGLDNTEFQGKRMHVQLSTSRLRTAPGMGDQSGCYRCGKEGHWSKECPIDRSGRVADLTEQYNEQYGAVRTPYTMSYGDSLYYNNAYGALDAYYKRCRAARSYEAVAAAAASVYNYAEQTLSQLPQVQNTAMASHLTSTSLDPYDRHLLPTSGAAATAAAAAAAAAAVTAASTSYYGRDRSPLRRATAPVPTVGEGYGYGHESELSQASAAARNSLYDMARYEREQYADRARYSAF [RBM4]”, for which, in the data set with HeLa Kyoto [1], the “solubility in G1/S (log2)” value came out at 0.281. Further, the melting temperature is 49.6 °C in the data set with HeLa Kyoto [2] (cell cycle stage: G1/S) and 48 °C in the data set with HeLa Kyoto [2] (cell cycle stage: mitosis). Also, the “solubility change mitosis (log2)” value in the data set on HeLa Kyoto [3] was -0.0121. Further, the results for the thermal stability score in the data set with HeLa Kyoto [4] (setting [5]) and in the data set on HeLa Kyoto [4] (cell cycle stage: mitosis) were -0.245 and -0.114, respectively.

In the case of “MVLSELAARLNCAEYKNWVKAGHCLLLLRSCLQGFVGREVLSFHRGLLAAAPGLGPRAVCRGGSRCSPRARQFQPQCQVCAEWKREILRHHVNRNGDVHWGNCRPGRWPVDAWEVAKAFMPRGLADKQGPEECDAVALLSLINSCDHFVVDRKKVTEVIKCRNEIMHSSEMKVSSTWLRDFQMKIQNFLNEFKNIPEIVAVYSRIEQLLTSDWAVHIPEEDQRDGCECEMGTYLSESQVNEIEMQLLKEKLQEIYLQAEEQEVLPEELSNRLEVVKEFLRNNEDLRNGLTEDMQKLDSLCLHQKLDSQEPGRQTPDRKA [CXORF38]”, the “solubility in G1/S (log2)” value with HeLa Kyoto [1] amounted to 0.0857. Further, the melting temperature in the data set with HeLa Kyoto [2] (cell cycle stage: G1/S) worked out at 52.5 °C; in the data set on HeLa Kyoto [2] (cell cycle stage: mitosis), 52.1 °C. Further, in the data set on HeLa Kyoto [3], the “solubility change mitosis (log2)” value was -0.0263. Besides, the thermal stability score is -0.304 with HeLa Kyoto [4] (setting [5]) and 2.18 in the data set on HeLa Kyoto [4] (cell cycle stage: mitosis).

With “MVLSQRQRDELNRAIADYLRSNGYEEAYSVFKKEAELDVNEELDKKYAGLLEKKWTSVIRLQKKVMELESKLNEAKEEFTSGGPLGQKRDPKEWIPRPPEKYALSGHRSPVTRVIFHPVFSVMVSASEDATIKVWDYETGDFERTLKGHTDSVQDISFDHSGKLLASCSADMTIKLWDFQGFECIRTMHGHDHNVSSVAIMPNGDHIVSASRDKTIKMWEVQTGYCVKTFTGHREWVRMVRPNQDGTLIASCSNDQTVRVWVVATKECKAELREHEHVVECISWAPESSYSSISEATGSETKKSGKPGPFLLSGSRDKTIKMWDVSTGMCLMTLVGHDNWVRGVLFHSGGKFILSCADDKTLRVWDYKNKRCMKTLNAHEHFVTSLDFHKTAPYVVTGSVDQTVKVWECR [PAFAH1B1]”, in the data set on HeLa Kyoto [1], the “solubility in G1/S (log2)” value was -0.211. Moreover, the melting temperature in the data set with HeLa Kyoto [2] (cell cycle stage: G1/S) is 55.8 °C; in the data set with HeLa Kyoto [2] (cell cycle stage: mitosis), 55.5 °C. In addition, in the data set with HeLa Kyoto [3], the “solubility change mitosis (log2)” value was -0.149. Also, the thermal stability score in the data set with HeLa Kyoto [4] (setting [5]) is 1.3; with HeLa Kyoto [4] (cell cycle stage: mitosis) it was -0.762.

Take “MVMEKPSPLLVGREFVRQYYTLLNKAPEYLHRFYGRNSSYVHGGVDASGKPQEAVYGQNDIHHKVLSLNFSECHTKIRHVDAHATLSDGVVVQVMGLLSNSGQPERKFMQTFVLAPEGSVPNKFYVHNDMFRYEDEVFGDSEPELDEESEDEVEEEQEERQPSPEPVQENANSGYYEAHPVTNGIEEPLEESSHEPEPEPESETKTEELKPQVEEKNLEELEEKSTTPPPAEPVSLPQEPPKAFSWASVTSKNLPPSGTVSSSGIPPHVKAPVSQPRVEAKPEVQSQPPRVREQRPRERPGFPPRGPRPGRGDMEQNDSDNRRIIRYPDSHQLFVGNLPHDIDENELKEFFMSFGNVVELRINTKGVGGKLPNFGFVVFDDSEPVQRILIAKPIMFRGEVRLNVEEKKTRAARERETRGGGDDRRDIRRNDRGPGGPRGIVGGGMMRDRDGRGPPPRGGMAQKLGSGRGTGQMEGRFTGQRR [G3BP2]”: the “solubility in G1/S (log2)” value with HeLa Kyoto [1] is -0.124. The values for the melting temperature with HeLa Kyoto [2] (cell cycle stage: G1/S) and in the data set with HeLa Kyoto [2] (cell cycle stage: mitosis) were 51.7 °C and 50.4 °C, respectively. In addition, in the data set with HeLa Kyoto [3], the “solubility change mitosis (log2)” value was 0.158. Besides, the thermal stability score was -0.995 in the data set on HeLa Kyoto [4] (setting [5]) and -2.86 with HeLa Kyoto [4] (cell cycle stage: mitosis).

Consider “MVPGEENQLVPKEDVFWRCRQNIFDEMKKKFLQIENAAEEPRVLCIIQDTTNSKTVNERITLNLPASTPVRKLFEDVANKVGYINGTFDLVWGNGINTADMAPLDHTSDKSLLDANFEPGKKNFLHLTDKDGEQPQILLEDSSAGEDSVHDRFIGPLPREGSGGSTSDYVSQSYSYSSILNKSETGYVGLVNQAMTCYLNSLLQTLFMTPEFRNALYKWEFEESEEDPVTSIPYQLQRLFVLLQTSKKRAIETTDVTRSFGWDSSEAWQQHDVQELCRVMFDALEQKWKQTEQADLINELYQGKLKDYVRCLECGYEGWRIDTYLDIPLVIRPYGSSQAFASVEEALHAFIQPEILDGPNQYFCERCKKKCDARKGLRFLHFPYLLTLQLKRFDFDYTTMHRIKLNDRMTFPEELDMSTFIDVEDEKSPQTESCTDSGAENEGSCHSDQMSNDFSNDDGVDEGICLETNSGTEKISKSGLEKNSLIYELFSVMVHSGSAAGGHYYACIKSFSDEQWYSFNDQHVSRITQEDIKKTHGGSSGSRGYYSSAFASSTNAYMLIYRLKDPARNAKFLEVDEYPEHIKNLVQKERELEEQEKRQREIERNTCKIKLFCLHPTKQVMMENKLEVHKDKTLKEAVEMAYKMMDLEEVIPLDCCRLVKYDEFHDYLERSYEGEEDTPMGLLLGGVKSTYMFDLLLETRKPDQVFQSYKPGEVMVKVHVVDLKAESVAAPITVRAYLNQTVTEFKQLISKAIHLPAETMRIVLERCYNDLRLLSVSSKTLKAEGFFRSNKVFVESSETLDYQMAFADSHLWKLLDRHANTIRLFVLLPEQSPVSYSKRTAYQKAGGDSGNVDDDCERVKGPVGSLKSVEAILEESTEKLKSLSLQQQQDGDNGDSSKSTETSDFENIESPLNERDSSASVDNRELEQHIQTSDPENFQSEERSDSDVNNDRSTSSVDSDILSSSHSSDTLCNADNAQIPLANGLDSHSITSSRRTKANEGKKETWDTAEEDSGTDSEYDESGKSRGEMQYMYFKAEPYAADEGSGEGHKWLMVHVDKRITLAAFKQHLEPFVGVLSSHFKVFRVYASNQEFESVRLNETLSSFSDDNKITIRLGRALKKGEYRVKVYQLLVNEQEPCKFLLDAVFAKGMTVRQSKEELIPQLREQCGLELSIDRFRLRKKTWKNPGTVFLDYHIYEEDINISSNWEVFLEVLDGVEKMKSMSQLAVLSRRWKPSEMKLDPFQEVVLESSSVDELREKLSEISGIPLDDIEFAKGRGTFPCDISVLDIHQDLDWNPKVSTLNVWPLYICDDGAVIFYRDKTEELMELTDEQRNELMKKESSRLQKTGHRVTYSPRKEKALKIYLDGAPNKDLTQD [USP47]”, for which the “solubility in G1/S (log2)” value with HeLa Kyoto [1] is -0.111. Besides, the melting temperature was 49.6 °C in the data set with HeLa Kyoto [2] (cell cycle stage: G1/S) and 49.7 °C in the data set with HeLa Kyoto [2] (cell cycle stage: mitosis). For the same sequence, in the data set on HeLa Kyoto [3], the “solubility change mitosis (log2)” value is -0.168. In addition, the thermal stability score with HeLa Kyoto [4] (setting [5]) worked out at 0.111; in the data set with HeLa Kyoto [4] (cell cycle stage: mitosis), 0.427.
